Laboratory results as given in US20240002547A1 (AEBI, published 2024).
Positions of bridges follow the written chain, without caps; N, C: chain ends. No end group written: not given here.

Target: human eukaryotic elongation factor 2 (eEF2) (human, UniProt P13639 2-858)
Assay: peptide screening by the technique of WO 2007/010525

Binder	binding result
CSARWGPTMPWC (disulfide 1-12 (inferred)) [Tox1]	binds
CRRGSRASGAHC (disulfide 1-12 (inferred)) [Tox2]	binds
